B1: Bacteriocin YS111: putative circular bacteriocin of Streptococcus suis YS111; SEQ ID NO: 828 circularized with Npu split intein (protein, listed as Streptococcus suis)
chain: STVVNVILGAGTAVTILGIISSIASGGATTLLTVGWAGFKATVQRLAKQSMARAIAYVAAALGVPSAVA
modifications: circularized via Npu split intein; Strain YS111; Bacteriocin YS111
B2: Bacteriocin BCW 2997: putative circular bacteriocin of Listeria monocytogenes BCW 2997; SEQ ID NO: 818 circularized with Npu split intein (protein)
chain: SIKVYLKKQIKKKGRKAVIAWLAKEFGIPGGVAATVLNIVEAGGWATTILSILTAVGSGGLSLIAAAGKE
modifications: circularized via Npu split intein; Strain BCW 2997; Bacteriocin BCW 2997; Listeria monocytogenes
B3: Leucocyclicin Q (protein)
chain: SKSLANTILGAIAVGNLASWLLALVPGPGWATKAALATAETIVKHEGKAAAIAWLVNQLGI
modifications: circularized via Npu split intein; Strain TK41401; Leucocyclicin Q; Leuconostoc mesenteroides
notes: circular bacteriocin of Leuconostoc mesenteroides TK41401
B4: Circularin A (protein, listed as Clostridium beijerinckii)
chain: SIASGGAGTLMTIGWATFKATVQKLAKQSMARAIAYVAGALGVQTAAATTIVNVILNAGTLVTVLGIIA
modifications: circularized via Npu split intein; Circularin A (CirA); ATCC 25752
notes: circular bacteriocin of Clostridium beijerinckii ATCC 25752
B5: Uberolysin A (protein, listed as Streptococcus uberis)
chain: SGTAKKVVDAIDKGAAAFVIISIISTVISAGALGAVSASADFIILTVKNYISRNLKAQAVIWLAGYTGIA
modifications: circularized via Npu split intein; Uberolysin A (UberA); Strain 42
notes: circular bacteriocin of Streptococcus uberis 42
B6: Enterocin NKR-5-3B (protein, listed as Enterococcus faecium)
chain: SSYAAKKVIDIINTGSAVATIIALVTAVVGGGLITAGIVATAKSLIKKYGAKYAAAWLTANLGI
modifications: circularized via Npu split intein; Strain NKR-5-3; Enterocin NKR-5-3B
notes: circular bacteriocin of Enterococcus faecium NKR-5-3
B7: DSM 15102: putative circular bacteriocin of Garciella nitratireducens DSM 15102; SEQ ID NO: 832 circularized with Npu split intein (protein, listed as Garciella nitratireducens)
chain: SMLGISTVAAKKVIDIIDTASTVATIISLIGVIVGVGGITAGLVTTAKAMIKKYGKKYATMWLA
modifications: circularized via Npu split intein; Bacteriocin DSM 15102; Strain DSM 15102
B8: Enterocin AS-48 (protein, listed as Enterococcus faecalis)
chain: SIKAYLKKEIKKKGKRAVIAWMAKEFGIPAAVAGTVLNVVEAGGWVTTIVSILTAVGSGGLSLLAAAGRE
modifications: circularized via Npu split intein; Enterocin AS-48 (EntAS48); Strain 48
notes: circular bacteriocin of Enterococcus faecalis S-48
B9: Amylocyclicin (protein, listed as Bacillus amyloliquefaciens)
chain: STAAAKKAIDIIDAASTIASIISLIGIVTGAGAISYAIVATAKTMIKKYGKKYAAAWLASTLGI
modifications: circularized via Npu split intein; Strain FZB42; Amylocyclicin (Alc)
notes: circular bacteriocin of Bacillus amyloliquefaciens FZB42
B10: Bacteriocin 3688STDY6124959: putative circular bacteriocin of Staphylococcus aureus 3688STDY6124959; SEQ ID NO: 814 circularized with Npu split intein (protein, listed as Staphylococcus aureus)
chain: STLGISSYAAKKAIDIIAAAGDVAAIVGLIGAVTGAGAIGAGILFTAKKLIKSYGKKYAAAWLT
modifications: circularized via Npu split intein; Bacteriocin 3688STDY6124959; Strain 3688STDY6124959

What was measured:
L. lactis IL1403 = experiment: Antimicrobial activity (halo of inhibition on petri dishes) of cell-free produced, intein-circularized bacteriocins against indicator L. lactis IL1403; format: cell-based, Lactococcus lactis; design: key: +: Bacteriocins showing a halo of inhibition against at least one of the indicators were considered as positive; conditions: bacteriocins circularized with inteins; cell free production and overnight incubation at room temperature
Procedure: (§1) Recombinant vectors were stabilized and amplified in E. coli DH5a standard strain and used as templates for cell-free protein synthesis using PURExpress® in vitro Protein Synthesis Kit (New England Biolabs). All bacteriocins synthesized were tested on petri dishes for antimicrobial activity against an indicator strain. Bacteriocins showing a halo of inhibition against at least one of the indicators were considered as positive.
(§2) Following the same scheme as for GarML, different plasmids containing genes coding for recombinant proteins containing Npu IC and IN fused to the mature amino acid sequence of different known and hypothetical circular bacteriocins were synthesized. The circularization point for all of them was changed with respect to the native peptides so they all would start with a Ser in position 1 (Table 2.1). The Ssra tag was also added to the C-terminus. […] Plasmids synthesized were used as templates for cell free protein production. Antimicrobial activity of the peptides obtained after cell free production and overnight incubation at room temperature were tested against indicator L. lactis IL1403.

L. inocua = experiment: Antimicrobial activity (halo of inhibition on petri dishes) of cell-free produced, intein-circularized bacteriocins against indicator L. inocua; format: cell-based; design: key: +: Bacteriocins showing a halo of inhibition against at least one of the indicators were considered as positive; conditions: bacteriocins circularized with inteins; cell free production
Procedure: as §1, §2

P. pentosaceus HELA = experiment: Antimicrobial activity (halo of inhibition on petri dishes) of cell-free produced, intein-circularized bacteriocins against indicator P. pentosaceus HELA; format: cell-based; design: key: +: Bacteriocins showing a halo of inhibition against at least one of the indicators were considered as positive; conditions: bacteriocins circularized with inteins; cell free production
Procedure: as §1, §2

L. lactis = experiment: Controlling growth of contaminating L. lactis in a culture medium with a circular bacteriocin (Examples 5 and 6); format: cell-based
From the text: A polypeptide containing an amino acid sequence of a circular bacteriocin, for example Enterocin AS-48, flanked by a split intein is produced. The split intein is a conditionally active, pH-sensitive split intein, and is configured to circularize the bacteriocin when the pH is below 6.0. The polypeptide is introduced into a culture medium growing a microbial organism of interest, at pH 7.0. […] When a contaminating microbial species, L. lactis, is detected in the culture medium, the pH of the medium is reduced to below 6.0, which activates the split intein and causes the bacteriocin to circularize. Subsequently, the growth of the contaminating L. lactis in the culture medium is inhibited.
A microbial cell is genetically engineered with an expression vector encoding a circular bacteriocin, for example Leucocyclicin Q, flanked by a split intein. The genetically engineered microbial cell is introduced into a culture medium growing a microbial organism of interest. The microbial cell produces the bacteriocin in circularized form, and secretes it into the culture medium. Growth of a contaminating microbial species, L. lactis, is inhibited by the circular bacteriocin.

Row | Molecule | Antimicrobial activity, Indicator L. lactis IL1403 (L. lactis IL1403) | other results
1 | Bacteriocin NCTC 12958: putative circular bacteriocin of Streptococcus thermophilus NCTC 12958; SEQ ID NO: 854 circularized with Npu split intein (SAGGSIVDAFAIIAGITLPAWVAPVLAGFGVVSAIYWICGKFGIRLAPGWYQDIVDFV; circularized via Npu split intein; Bacteriocin NCTC 12958; Strain NCTC 12958; listed as Streptococcus thermophilus) | + | –
2 | Carnocyclin A (SLINAGLTVGSIISILGGVTVGLSGVFTAVKAAIAKQGIKKAIQLLVAYGIAQGTAEKVV; circularized via Npu split intein; Carnocyclin A; Strain UAL307; listed as Carnobacterium maltaromaticum) [circular bacteriocin of Carnobacterium maltaromaticum UAL307] | + | –
3 | Garvicin ML (SGAFTAAGGIMALIKKYAQKKLWKQLIAALVATGMAAGVAKTIVNAVSAGMDIATALSLF; circularized via Npu split intein; Garvicin ML (GarML); Strain DCC43; listed as Lactococcus garvieae) [circular bacteriocin of Lactococcus garvieae DCC43] | + | –
4 | Gassericin A (SGASLGTAFAAILGVTLPAWALAAAGALGATAAIYWIADQFGIHLATGTARKLLDAMA; circularized via Npu split intein; Strain LA39; Gassericin A (GasA); listed as Lactobacillus gasseri) [circular bacteriocin of Lactobacillus gasseri LA39] | + | Antimicrobial activity, Indicator L. inocua (L. inocua): +; Antimicrobial activity, Indicator P. pentosaceus HELA (P. pentosaceus HELA): +
5 | Paracyclicin P (SAGGSLAGAFSVVAGVTLPAWIVPIATAFGAVSAIYFIANKLGIHLAPGWYQDMVNYV; circularized via Npu split intein; Paracyclicin P (ParP); subsp. Paracasei JCM 8130/ DSM 5622; listed as Lactobacillus paracesei) [circular bacteriocin of Lactobacillus paracasei JCM 8130/DSM 5622] | + | –
6 | Plantaricyclin A (SLTQKALDLLSAGSSLGTVAAAVLGVTLPAWAVAAAGALGGTAAIVWIAKQFGVHLTT; circularized via Npu split intein; Plantaricyclin A (PlcA); Strain NI326; listed as Lactobacillus plantarum) [circular bacteriocin of Lactobacillus plantarum NI326] | + | –
7 | B1 | + | –
8 | B2 | + | –
9 | B3 | + | growth of contaminating L. lactis in culture medium (L. lactis; Example 6, bacteriocin secreted by genetically engineered microbial cell): inhibited
10 | B4 | + | –
11 | B5 | – | Antimicrobial activity, Indicator L. inocua (L. inocua): +
12 | B6 | + | Antimicrobial activity, Indicator L. inocua (L. inocua): +
13 | B7 | + | –
14 | B8 | + | antimicrobial activity of non-circularized bacteriocin in culture medium (L. lactis; Example 5, pH-sensitive split intein, pH 7.0): does not exhibit antimicrobial activity; growth of contaminating L. lactis in culture medium (L. lactis; Example 5, pH-sensitive split intein, pH reduced to below 6.0): inhibited
15 | B9 | + | –
16 | B10 | + | –
